Measurements as given in patent publication US20040037843A1 (published 2004).
Read-outs that look alike come from different tables or passages of the source.

Tests used:
HLA-A*0201 [1] = molecular target: HLA-A*0201 (human)
HLA-A*0201 [2] = molecular target: HLA-A*0201 (human); experiment: inhibition of 125I probe peptide binding to purified HLA
HLA-A*0203 [3] = molecular target: HLA-A*0203 (human); experiment: as above
HLA-A*0206 [4] = molecular target: HLA-A*0206 (human); experiment: as above
HLA-A*6802 [5] = molecular target: HLA-A*6802 (human); experiment: as above
HLA-A*0203 [6] = molecular target: HLA-A*0203 (human); experiment: competition with 125I probe peptide on purified HLA, gel filtration
HLA-A*0201 [7] = molecular target: HLA-A*0201 (human); experiment: competition with 125I-labeled probe peptide for purified HLA, gel filtration
HLA-A*0203 [8] = molecular target: HLA-A*0203 (human); experiment: as above
HLA-A*0206 [9] = molecular target: HLA-A*0206 (human); experiment: as above
HLA-A*6802 [10] = molecular target: HLA-A*6802 (human); experiment: as above
HLA-A*0202 [11] = molecular target: HLA-A*0202 (human); experiment: inhibition of 125I probe peptide binding to purified HLA, gel filtration
HLA-A*0203 [12] = molecular target: HLA-A*0203 (human)
HLA-A*0206 [13] = molecular target: HLA-A*0206 (human)
HLA-A*0202 [14] = molecular target: HLA-A*0202 (human)
HLA-A*0201 [15] = molecular target: HLA-A*0201 (human); remark: listed apart in the source
HLA-A*0202 [16] = molecular target: HLA-A*0202 (human); experiment: competition with 125I-labelled standard peptide for purified HLA

MLLRLSEPAEL [PSA.118 (11-mer MLLRLSEPAEL)]
IC50 (HLA-A*0201 [1]): ≤ 200 nM

LLLARAASLSL [PAP.6]
IC50 (HLA-A*0201 [1]): ≤ 200 nM

TLMSAMTNL [PAP.112]
IC50 (HLA-A*0201 [1]): ≤ 200 nM

LMYSLVHNL [PSM.469]
IC50 (HLA-A*0201 [1]): ≤ 200 nM

MMNDQLMFL [PSM.663]
IC50 (HLA-A*0201 [1]): ≤ 200 nM

LLHETDSAV [PSM.4]
IC50 (HLA-A*0201 [1]): > 200 nM

ALVLAGGFFL [PSM.25]
IC50 (HLA-A*0201 [1]): > 200 nM

GLLGSTEWA [PSM.427]
IC50 (HLA-A*0201 [1]): > 200 nM

KLGSGNDFEV [PSM.514]
IC50 (HLA-A*0201 [1]): > 200 nM

LLLARAASLSL [Peptide 63.0136 LLLARAASLSL (PAP.6)]
IC50 (HLA-A*0201 [2]): 8.1 nM
IC50 (HLA-A*0203 [3]): 5.3 nM
IC50 (HLA-A*0206 [4]): 80 nM

FLLFFWLDRSV [Peptide 63.0138 FLLFFWLDRSV (PAP.20)]
IC50 (HLA-A*0203 [3]): 2.8 nM
IC50 (HLA-A*6802 [5]): 364 nM

TVSGLQMAV [Peptide 60.0213 TVSGLQMAV (PAP.292.V9)]
IC50 (HLA-A*0203 [6]): 122 nM

ATFDIESKV [Peptide 1418.30]
IC50 (HLA-A*0201 [7]): 238 nM
IC50 (HLA-A*0203 [8]): 44 nM
IC50 (HLA-A*0206 [9]): 82 nM
IC50 (HLA-A*6802 [10]): 258 nM

FLTLSVTWIGV [Peptide 63.0186 (PSA.3.V11)]
IC50 (HLA-A*0202 [11]): 3 nM

ITLSVGCTGAV [peptide 1418.59 (HuK2.8.T2)]
IC50 (HLA-A*0203 [12]): 40 nM
IC50 (HLA-A*0206 [13]): 206 nM

SLQCVSLHLV [peptide 1418.52 (HuK2.170.V10)]
IC50 (HLA-A*0202 [14]): 6.3 nM
IC50 (HLA-A*0203 [12]): 2.8 nM
IC50 (HLA-A*0206 [13]): 5.2 nM

KVTEFMLCAGV [peptide 1418.71, HuK2.191.V11]
IC50 (HLA-A*0201 [15]): 56 nM

FLTLSVTWIGV [peptide 1419.27, PSA.3.V11]
IC50 (HLA-A*0202 [16]): 3 nM
